Paper PMC10583499

Molecular target: human NRP2 (v2, NM_003872.3), untagged, stably overexpressed on Expi293F cells (Expi293F-hNRP2) (human) (UniProt O60462)
Test: flow cytometry on cells

EC50: 5.7 nM
Substance: human Sema3F (amino acids 19 to 779), N-terminal 6xHis-Myc tag, R583A R586A (from UniProt Q13275 19-779) (ligand)
